Each block holds one binder with its values, some of them ahead of it.
Experiments:
ActRIIB-Fc = target: T1, ActRIIB-Fc (UniProt Q13705 19-137); assay: SPR
T1 sequence: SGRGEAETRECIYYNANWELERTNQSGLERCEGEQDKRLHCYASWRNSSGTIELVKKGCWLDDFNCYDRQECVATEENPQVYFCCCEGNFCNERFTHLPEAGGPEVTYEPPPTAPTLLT

ActRIIB-Alk4-Fc = target: T2, ActRIIB-Alk4-Fc (human, UniProt Q13705;P36896); assay: SPR
T2 sequence 1: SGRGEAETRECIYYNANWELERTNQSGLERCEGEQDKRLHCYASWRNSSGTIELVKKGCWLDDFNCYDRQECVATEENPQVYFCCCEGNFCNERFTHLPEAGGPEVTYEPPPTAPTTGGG
T2 sequence 2: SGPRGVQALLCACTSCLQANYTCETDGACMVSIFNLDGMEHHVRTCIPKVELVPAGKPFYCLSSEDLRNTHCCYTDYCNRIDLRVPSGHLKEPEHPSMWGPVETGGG

(ActRIIB)2-Fc = target: T3, (ActRIIB)2-Fc (UniProt Q13705-1 19-137); assay: SPR
T3 sequence: T1 sequence

crystal structure = target: the molecule itself; assay: crystal structure

- Kd (ActRIIB-Fc): 0.108 nM
- Kd (ActRIIB-Alk4-Fc): 0.0304 nM
- Kd ((ActRIIB)2-Fc): 0.0125 nM
B1: Activin A mature (ligand)
chain: GLECDGKVNICCKKQFFVSFKDIGWNDWIIAPSGYHANYCEGECPSHIAGTSGSSLSFHSTVINHYRMRGHSPFANLKSCCVPTKLRPMSMLYYDDGQNIIKKDIQNMIVEECGCS
- binding result (crystal structure): binds

- Kd (ActRIIB-Fc): 0.0147 nM
- Kd (ActRIIB-Alk4-Fc): 0.00424 nM
- Kd ((ActRIIB)2-Fc): 0.00191 nM
B2: GDF11 mature (ligand)
chain: NLGLDCDEHSSESRCCRYPLTVDFEAFGWDWIIAPKRYKANYCSGQCEYMFMQKYPHTHLVQQANPRGSAGPCCTPTKMSPINMLYFNDKQQIIYGKIPGMVVDRCGCS
- binding result (crystal structure): binds
